In publication PMC3796367:

Experiments:
[1] = biological target: Pks4 SAT(C117A)-KS-MAT tridomain; test: ITC
[2] = biological target: Pks4 SAT(C117A)-KS-MAT tridomain; test: cross-linking

Substance	Kd [1] [µM]	stoichiometry N (ACP monomers per S0KM dimer) [2]
Pks4 apo-ACP (stand-alone ACP domain of Pks4) (domain or fragment)	15	
Pks4 ACP loaded with a pantetheine crosslinker (crypto-ACP) (domain or fragment)		2
PksA apo-ACP (stand-alone ACP domain of PksA) (domain or fragment)	30	
